The source of these data is patent US8637043B2, “Compositions useful as ligands for the formyl peptide receptor like 1 receptor and methods of use thereof” (Chemocentryx, Inc., priority 2001, dated 2014).

Marks after values point to notes of the source that are not given here. Ends that are not written are not given here.

In one experiment the test system is mononuclear cells. The experiment in a line: Mononuclear cell infiltration into the dermis after intradermal injection. Conditions: for cell infiltration, in words: summary of Table 18. The class given is in vivo, Rhesus macaques. Here is the method:
Different amounts (8, 20, or 60 μg in 100 μl PBS) of different polypeptides (see Table 18) were injected intradermally in Rhesus macaques under anesthesia. Twenty-four and 48 hours later, 6 mm skin punch biopsies were taken using aseptic technique and then bisected. One portion of the biopsy was embedded in OCT compound, flash frozen in liquid nitrogen and stored at −70° C. The other portion was immersed in formalin and embedded in paraffin wax; subsequently, sections cut on a microtome were stained with hematoxylin and eosin and then microscopically examined for cell infiltration into the dermis (Table 18). As a negative control, monkeys were injected with PBS lacking any polypeptides.
Mononuclear cell infiltration was scored on a scale of 0 to 5:0, very mild perivascular mononuclear inflammatory infiltration throughout the dermis; 1, a mild perivascular mononuclear inflammatory infiltrate seen throughout the dermis; 2, a mild/moderate perivascular mononuclear inflammatory infiltrate seen throughout the dermis; 3, a moderate perivascular mononuclear inflammatory infiltrate seen throughout the dermis; 4, an extensive perivascular mononuclear inflammatory infiltrate seen throughout the dermis; 5, a florid perivascular mononuclear inflammatory infiltrate seen throughout the dermis. intermediate scores are indicates, e.g., “⅔” represents a score between 2 and 3.

For the next experiment, the target named is T1, CCR1 (Homo sapiens, UniProt P32246).
T1 construct: full length cDNA encoding CCR1 was cloned by the polymerase chain reaction (PCR) from genomic DNA isolated from human peripheral blood cells; expressed in transfected cells; pcDNA3.1 vector)
T1 sequence (P32246 1-355): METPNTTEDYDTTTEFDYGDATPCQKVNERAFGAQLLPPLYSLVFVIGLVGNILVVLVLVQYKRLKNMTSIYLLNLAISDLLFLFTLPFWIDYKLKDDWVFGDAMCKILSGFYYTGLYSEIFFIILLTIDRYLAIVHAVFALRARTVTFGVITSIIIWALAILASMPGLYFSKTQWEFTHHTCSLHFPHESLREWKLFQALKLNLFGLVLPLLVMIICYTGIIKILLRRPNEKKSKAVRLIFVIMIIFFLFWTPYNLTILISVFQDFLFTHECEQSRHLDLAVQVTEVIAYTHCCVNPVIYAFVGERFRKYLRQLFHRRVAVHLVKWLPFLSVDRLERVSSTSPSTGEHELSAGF
The experiment is described as follows: 125I-MIP-1α binding competition, HEK293-CCR1 cells. On the procedure:
The binding characteristics of CCL23 variants was compared in human CCR1 expressing cells. […] Reactions mixtures were aspirated onto PEI-treated GF/B glass filters using a cell harvester (Packard). The filters were washed twice (25 mM HEPES, 500 mM NaCl, 1 mM CaCl2, 5 mM MgCl2, adjusted to pH 7.1). Scintillant (MicroScint-10; 35 μl) was added to dried filters and the filiters counted in a Packard Topcount scintillation counter. Data were analyzed and plotted using Prism software (GraphPad Software, San Diego, Calif.).

In the next experiment the test system is native L1.2 cells. The experiment in a line: Calcium flux in parental L1.2 cells or cells transfected with other chemokine receptors. Type of experiment: cell-based, murine. As to conditions: pariental cells or cells transfected with other chemokine receptors. The source says: The functional activities of CKβ8-1 (25-116) were investigated in human FPRL1-L1.2 transfectants and in native L1.2 cells. Stable expression of formyl peptide-like receptor 1 (FPRL1) in L.1.2 cell was obtained as follows. Full length cDNA encoding FPRL1 was cloned, using the polymerase chain reaction (PCR), from genomic DNA isolated from undifferentiated HL-60 cells. The polymerase chain reaction product was cloned into pcDNA3.1 (Invitrogen, Carlsbad, Calif.) using standard molecular cloning procedures and completely sequenced to confirm identity. Twenty micrograms of the FPRL1/pcDNA3.1 construct were linearized by digestion with Bsm1 (New England Biolabs, Beverly, Mass.) and used to transfect the murine B cell line L1.2 as follows. Twenty five million cells were washed twice and resuspended in 0.8 ml of PBS. The cells were incubated for 10 min at room temperature with the linearized FPRL/pcDNA3.1 construct DNA and transferred to a 0.4-cm cuvette, and a single electroporation pulse was applied at 250 V, 960 μF. Electroporated cells were incubated for 10 min at room temperature and transferred to culture at 37° C. in RPMI supplemented with 10% FCS. […] After 2-3 weeks under drug selection, stable geneticin-resistant FPLR1 expressing cells were assessed for their ability to mobilize Ca^++ in response to SHAAGtide or CKbeta 8-1 at concentrations of 1 to 1000 nM. […]
A general note: A change in cytosolic calcium serves as a functional read-out for many receptors and channels.

A further experiment deals with pariental L1.2 cells. The experiment is described as follows: Migration of parental L1.2 cells. Type of experiment: cell-based, murine. Here is the method: Migration assays were performed on monocytes and neutrophils. Human monocytes and neutrophils (prepared as in Exampe 2) were harvested and resuspended in chemotaxis medium (CM). The CM consisted of Hank's buffered salt solution (Gibco, Mass.) containing CaCl2 (1 mM) and MgSO4 (1 mM) with added 0.1% BSA (Sigma, St. Louis, Mo.). The assays were performed in 96-well ChemoTx® microplates (Neuroprobe, Mass.). Leukotactin, MlP-1α and chemokines (CKβ8(1-99), CKβ8(25-99), CKβ8-1(1-116) or CKβ8-1(25-116), prepared as in Example 1) were added to the lower wells (final volume 29 μL), and 20 μL of cell suspension (5×10^6 cells/mL for monocytes; 2.5×10^6 cells/mL for neutrophils) added to the polycarbonate filters (5 μm pore size for monocytes; 3 μm pore size for neutrophils). After incubation for 90 min (37° C., 100% humidity, 5% CO2), cells were removed from the upper surface of the filter by scraping. Cells that migrated into the lower chamber were quantified using the Quant cell proliferation assay kit (Molecular Probes, Oreg.).
The ability of CKβ8-1 (25-116) to elicit the migration of the FPRL1 expressing cells was examined. Test conditions were as in Example 5.

The mark [1] stands for this setting: 60 μg intradermally, 24 hours, scale 0 (very mild) to 5 (florid).

With MLWRRKIGPQMTLSHAAY [SEQ ID NO: 6], the “Mononuclear cell infiltration score” value in the experiment with mononuclear cells (8 μg, 24 hours) is 0; in the experiment on mononuclear cells (8 μg, 48 hours), 0; in the experiment on mononuclear cells (20 μg, 24 hours) it was 2*; with mononuclear cells (20 μg, 48 hours) it was 0; in the experiment with mononuclear cells (setting [1]), 0; with mononuclear cells (60 μg, 48 hours), 0. The “cell infiltration, in words” value in the experiment with mononuclear cells is “moderately strong infiltration in one of the two animals”.

B1: CKβ8-1(1-116): alternatively spliced form of CKβ8, 116 amino acids, human recombinant chemokine (protein, listed as Homo sapiens)
chain: RVTKDAETEFMMSKLPLENPVLLDMLWRRKIGPQMTLSHAAGFHATSADCCISYTPRSIPCSLLESYFETNSECSKPGVIFLTKKGRRFCANPSDKQVQVCMRMLKLDTRIKTRKN
For B1, in the experiment with CCR1 (displacement of bound 125I-MIP-1α from CCR1), the “fold less potency than CKβ8(1-99)” value is reported as 3-4 fold.

B2: CKβ8-1(25-116): novel NH2-terminal truncated form of CKβ8-1, SEQ ID NO: 16, human recombinant chemokine (protein, listed as Homo sapiens)
chain: MLWRRKIGPQMTLSHAAGFHATSADCCISYTPRSIPCSLLESYFETNSECSKPGVIFLTKKGRRFCANPSDKQVQVCMRMLKLDTRIKTRKN
B2: the “Mononuclear cell infiltration score” value in the experiment with mononuclear cells (20 μg, 24 hours) is listed as 0; with mononuclear cells (20 μg, 48 hours) it was 0; in the experiment with mononuclear cells (setting [1]), 0; with mononuclear cells (60 μg, 48 hours), 0. Also, the “cell infiltration, in words” value in the experiment on mononuclear cells is on record as “no infiltration”. Besides, in the experiment on native L1.2 cells, the induced calcium release entry was “not observed”. Also, in the experiment with CCR1 (HEK293-CCR1), the “IC50 increase of truncated variant versus full-length variant” value is “one fold”. In addition, the “migration of parental L1.2 cells” value in the experiment with pariental L1.2 cells was “did not migrate”.
